Laboratory results: paper PMC5360572 (EBioMedicine, 2017)

B2: human PD-L2 Ig fusion protein (Fc fusion, UniProt Q9BQ51 20-220, looked up)
chain: LFTVTVPKELYIIEHGSNVTLECNFDTGSHVNLGAITASLQKVENDTSPHRERATLLEEQLPLGKASFHIPQVQVRDEGQYQCIIIYGVAWDYKYLTLKVKASYRKINTHILKVPETDEVELTCQATGYPLAEVSWPNVSVPANTSHSRTPEGLYQVTSVLRLKPPPGRNFSCVFWNTHVRELTLASIDLQSQMEPRTHPT
notes: characterized by SEC prior to use; also called huPD-L2; B7-DC; source: bought: R&D Systems

Experiments:
[1] = target: human mature dendritic cells expressing PD-L1 and PD-L2
[2] = target: T1, human PD-L1 Ig fusion protein (human, UniProt Q9NZQ7 19-238); assay: SPR; BIAcore 3000, 25 °C; PD-L1-Ig or PD-L2-Ig immobilized on CM5 chip by amine coupling; soluble monomeric PD-1 or mutants (0.01–100 μM) injected at 20 μl/min; equilibrium Kd, 1:1 Langmuir model; conditions: both partners purified
T1 construct: characterized by SEC prior to use; detected on cells with anti-human IgG Fcγ-specific F(ab')2; also called huPD-L1; B7-H1; source: bought: R&D Systems

[3] = target: B2; assay: as above; conditions: both partners purified
[4] = target: T2, full-length human PD-1 I126A, on HEK293 cells (human, UniProt Q15116 25-288, I126A); assay: flow cytometry on cells; HEK293 cells transiently transfected with full-length wild type or mutant human PD-1, incubated with PD-L1 or PD-L2 Ig fusion proteins (0.01–50 μg/ml) for one hour on ice; APC anti-human IgG F(ab')2 Fcγ specific; MFI normalized to wild type PD-1 binding; relative binding at 0.5 μg/ml ligand; conditions: one partner purified
T2 construct: Gateway pEF5/FRT/V5-DEST destination vector; source: HEK293, transiently transfected, on the cell surface
T2 sequence (Q15116 25-288 I126A): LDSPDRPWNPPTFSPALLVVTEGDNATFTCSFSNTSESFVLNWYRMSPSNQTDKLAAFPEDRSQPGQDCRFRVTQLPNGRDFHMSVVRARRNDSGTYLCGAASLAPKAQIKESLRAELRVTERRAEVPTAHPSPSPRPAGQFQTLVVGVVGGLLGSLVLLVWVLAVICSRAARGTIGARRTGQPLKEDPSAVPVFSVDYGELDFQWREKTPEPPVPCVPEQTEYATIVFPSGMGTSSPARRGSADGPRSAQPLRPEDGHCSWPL

T1 sequence (Q9NZQ7 19-238): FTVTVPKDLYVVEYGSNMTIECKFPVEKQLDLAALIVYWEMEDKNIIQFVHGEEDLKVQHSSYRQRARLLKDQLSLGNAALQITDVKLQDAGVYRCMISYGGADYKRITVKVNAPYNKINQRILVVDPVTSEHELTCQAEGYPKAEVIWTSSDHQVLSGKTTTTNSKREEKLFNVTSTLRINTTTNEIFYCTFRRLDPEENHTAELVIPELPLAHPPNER

high-affinity human PD-1 (A132L) Ig fusion protein (from UniProt Q15116 25-170) (Fc fusion)
T cell proliferation (3H-thymidine uptake) in allogeneic MLR with dendritic cells pre-treated with HA PD-1 Ig (0.5–5 μg/ml), against untreated control [1]: > 50% | production of IFN-γ and IL-12p70 in allogeneic MLR, against untreated control (no Ig) [1]: > 6 fold

B1: mouse PD-1, wild type (soluble, monomeric) (domain or fragment, UniProt Q02242 25-169, looked up)
chain: LEVPNGPWRSLTFYPAWLTVSEGANATFTCSLSNWSEDLMLNWNRLSPSNQTEKQAAFCNGLSQPVQDARFQIIQLPNRHDFHMNILDTRRNDSGIYLCGAISLHPKAKIEESPGAELVVTERILETSTRYPSPSPKPEGRFQGM
notes: mouse PD-1, soluble monomeric form used as SPR analyte; the construct used here is not described; also called mPD-1; murine PD-1
Kd [2]: 4.02 µM | Kd [3]: 10.7 µM

B2
reduction of binding relative to wild type PD-1 [4]: 50%
